# Reference: PMC7861550
# B1: unnamed (parent)
# chain: MDIDPYKEFGATVELLSFLPSDFFPSVRDLLDTASALYREALESPEHCSPHHTALRQAILCWGELMTLATWVGVNLEDPASRDLVVSYVNTNMGLKFRQLLWFHISCLTFGRETVIEYLVSFGVWIRTPPAYRPPNAPILSTLPETTVVRRRGRSPRRRTPSPRRRRSQSPRRRRSQSRESQC
# Variants of: B1
# Experiment: capsid assembly (Ca assem)
# Conditions: with partner chain of the complex shown
row,Variant,ratio to parent
1,chain 1 T146D T147D,1.06
2,chain 1 L140A,1.32
3,chain 1 T146A T147A,1.08
4,chain 1 S141T V148I V149I,0.98
5,chain 1 S141R,1.16
6,chain 1 S141D,1.11
7,chain 1 S141A,1.03
8,chain 1 E145D,1.05
9,chain 1 L143I,0.97
10,chain 1 L143A,1.05
